Measurements taken from the supplement of paper PMC9170038.

Test system: MS2 coat protein
Assay: apparent KD of MS2 coat protein; designed switch direction (-1 OFF switch, 1 ON switch): 1; higher = weaker reporter binding
In short: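 Designed RNA switches with common flanks were made on Illumina chips by stalled E. coli RNA polymerase. Titration with SNAP-549-labelled MS2 coat protein doubled from 0.7 or 1.5 nM up to 3 µM. Apparent KD is each design's median over clusters after curve-fitting normalised fluorescence.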

[1] = Eterna round: R95, input ligand: FMN 200 uM
[2] = Eterna round: R95, input ligand: microRNA oligo, concentration not stated
[3] = Eterna round: R95, input ligand: none
[4] = input ligand: microRNA oligo, concentration not stated

AGUCCAGCCUGAGCUGGACAAAAGCAUGUACAUGAGGAUCACCCAUGUCAUGUACAAGCUUUUUGCUCGUCUUGAUA [Zipper 49 - 8] (puzzle: Sensor for hsa-mir-208a)
apparent KD of MS2 coat protein [1]: 416 nM | apparent KD of MS2 coat protein [2]: 16.7 nM | apparent KD of MS2 coat protein [3]: 435 nM

AGUCCAGCCUGAGCUGGACAAAAGCAUGUACAUGAGGAUCACCCAUGUCAUGUACAAGUUUUUUGCUCGUCUUAAAA [Zipper 46 - 11] (puzzle: Sensor for hsa-mir-208a)
apparent KD of MS2 coat protein [1]: 37.7 nM | apparent KD of MS2 coat protein [2]: 13 nM | apparent KD of MS2 coat protein [3]: 40.6 nM

AGUCCAGCCUGAGCUGGACAAAAGCAUGUACAUGAGGAUCACCCAUGUUCAUGUACAAGCUUUUUGCUCGUCUUAGU [salish99_208a_r3_061] (puzzle: Sensor for hsa-mir-208a)
apparent KD of MS2 coat protein [1]: 481 nM | apparent KD of MS2 coat protein [2]: 15.1 nM | apparent KD of MS2 coat protein [3]: 528 nM

AGUCCAGCCUGAGCUGGACAAAAGCAUGUACAUGAGGAUCACCCAUGUUCAUGUACAGGCUUUUUGCUCGUCUUAAA [Zipper 52 - 7] (puzzle: Sensor for hsa-mir-208a)
apparent KD of MS2 coat protein [1]: 331 nM | apparent KD of MS2 coat protein [2]: 17.8 nM | apparent KD of MS2 coat protein [3]: 488 nM

AGUCCAGCCUGAGCUGGACAAAUGCUUGUACAUGAGGAUCACCCAUGUAUGUACAAGCUUUUUGCUCGUCUUAAUAA [JL zipper 68] (Eterna round: R96, puzzle: Sensor for hsa-mir-208a)
apparent KD of MS2 coat protein (input ligand: FMN 200 uM): 263 nM | apparent KD of MS2 coat protein [4]: 18.2 nM | apparent KD of MS2 coat protein (input ligand: none): 223 nM

AGUCCAGCCUGAGCUGGACUGAAGCAUGUACAUGAGGAUCACCCAUGUUCAUGUGCAAGCUUUUUGCUCGUCUUAUG [JL-shm-2.03 JL mod] (puzzle: Sensor for hsa-mir-208a)
apparent KD of MS2 coat protein [1]: 42 nM | apparent KD of MS2 coat protein [2]: 11.5 nM | apparent KD of MS2 coat protein [3]: 41.8 nM

AGUCCAGCGAAAGCUGGACAAAAGCAUGUACAUGAGGAUCACCCAUGUUCAUGUGCAAGCUUUUUGCUCGUCUUAAA [JL mod - D95 - 4] (puzzle: Sensor for hsa-mir-208a)
apparent KD of MS2 coat protein [1]: 49.2 nM | apparent KD of MS2 coat protein [2]: 9.36 nM | apparent KD of MS2 coat protein [3]: 58.9 nM

AGUCCAGCGAAAGCUGGACAAAGACAUGUACAUGAGGAUCACCCAUGUCAUGUACAAGUUUUUUGCUCGUCUUAUAA (puzzle: Sensor for hsa-mir-208a)
apparent KD of MS2 coat protein [1]: 34.4 nM | apparent KD of MS2 coat protein [2]: 12.7 nM | apparent KD of MS2 coat protein [3]: 35.8 nM

AGUCCUGAAAAGAAAAUAAUAAGUGAUGUACAUGAGGAUCACCCAUGUCAUGUACAAGUUCUAUGCUCGUCAUAUAA [Sensorship 24 - Jieux - Sensor for hsa-mir-208a] (puzzle: Sensor for hsa-mir-208a)
apparent KD of MS2 coat protein [1]: 106 nM | apparent KD of MS2 coat protein [2]: 32.2 nM | apparent KD of MS2 coat protein [3]: 98.1 nM

AUAAAACAUGAGGAUCACCCAUGUCAACAAAGUCGAGGAUAUGGGCAAAUAAAAUAAGAACCAGAAGGCGAUUAAU [salish99_ss1_r3_035] (puzzle: Same State 1)
apparent KD of MS2 coat protein [1]: 23.4 nM | apparent KD of MS2 coat protein [2]: 97.3 nM | apparent KD of MS2 coat protein [3]: 99 nM

AUAAGGCAAGCUUUUUUCUCGUAGUGUAAACAUGAGGAUCACCCAUGUGCCCACCCUGGACCUUUGGAUCGCAGAAA [Geatxe] (puzzle: Sensor for hsa-mir-208a)
apparent KD of MS2 coat protein [1]: 30.5 nM | apparent KD of MS2 coat protein [2]: 25.9 nM | apparent KD of MS2 coat protein [3]: 25.9 nM

AUAAGUUCGAUGCUCGUCUCUCCGUACAAACAUGAGGAUCACCCAUGUGAUUAGGCAGUAGCCCAAUCAGUAUGGCC [Ariusveri] (puzzle: Sensor for hsa-mir-208a)
apparent KD of MS2 coat protein [1]: 38.7 nM | apparent KD of MS2 coat protein [2]: 21.8 nM | apparent KD of MS2 coat protein [3]: 43.4 nM

AUAAGUUUGAUGCUCGUCUCUCCGUACAGACAUGAGGAUCACCCAUGUAGUCGGGAAGUAGCCCGGCCUGUAUGGCC [Magequ] (puzzle: Sensor for hsa-mir-208a)
apparent KD of MS2 coat protein [1]: 15.2 nM | apparent KD of MS2 coat protein [2]: 15.7 nM | apparent KD of MS2 coat protein [3]: 14.4 nM

AUAAGUUUGAUGCUCGUCUCUCCGUACGGACAUGAGGAUCACCCAUGUAGUCGGGAAGUAGCCCGGCCAGUAUGGCC [Soveerre] (puzzle: Sensor for hsa-mir-208a)
apparent KD of MS2 coat protein [1]: 32.6 nM | apparent KD of MS2 coat protein [2]: 22.3 nM | apparent KD of MS2 coat protein [3]: 22.9 nM

AUACAUGAGGAUCACCCAUGUAAUUAAUUAACUUGUAAGAUCAAGGAUAUCAGCUCGAUUAGAGCUGAGAAGGUGAUCACAUGU [SSNG3/21-C2] (Eterna round: R96, puzzle: Same State NG 3)
apparent KD of MS2 coat protein [4]: 116 nM

AUAGUUAGCAAAGGAUAUGGGAAAGGAAGUGUACCAGAAGGUUGGCUACUGGGCUUACAUGAGGAUCACCCAUGUCCCGGUAGC [PowerStrip SSNG 1.30] (Eterna round: R96, puzzle: Same State NG 1)
apparent KD of MS2 coat protein (input ligand: FMN 200 uM): 14.6 nM | apparent KD of MS2 coat protein [4]: 14.2 nM | apparent KD of MS2 coat protein (input ligand: none): 15.4 nM

AUAUGAGAAGCAGGAUAUGUGAAAAAAAAACAUACAGAAGGGUUUAUGGAAAAACAUGAGGAUCACCCAUGUUCUUUGUGAUGA [AK SSNG1-V2-1] (Eterna round: R96, puzzle: Same State NG 1)
apparent KD of MS2 coat protein [4]: 29.6 nM

AUCAAAACAAGUUGCAGUGUUCGUCUUUCACAUGAGGAUCACCCAUGUAAUAGCCCAGUGGAAGCGCUCGGGCUACC [Esgevexe] (puzzle: Sensor for hsa-mir-208a)
apparent KD of MS2 coat protein [1]: 38.7 nM | apparent KD of MS2 coat protein [2]: 25.6 nM | apparent KD of MS2 coat protein [3]: 47.9 nM

AUCCUACAUGAGGAUCACCCAUGUGACGCCUCAAUAGGAUAUCGGGCCCACAGUCGGGAACGAGAAGGAUUGAAGC [Beatonce] (puzzle: Same State 1)
apparent KD of MS2 coat protein [1]: 70 nM | apparent KD of MS2 coat protein [2]: 170 nM | apparent KD of MS2 coat protein [3]: 669 nM

AUGAAGAAUUAAGGAUAUUGAUUACAUAUGUUUAACAUGAGGAUCACCCAUGUGGGUUGCGGUAUCGAGAAGGUAAAUUACAAG [Mat - same State NG 2 - JL mod - D87] (Eterna round: R96, puzzle: Same State NG 2)
apparent KD of MS2 coat protein (input ligand: FMN 200 uM): 177 nM | apparent KD of MS2 coat protein [4]: 132 nM | apparent KD of MS2 coat protein (input ligand: none): 187 nM

AUGCCCGUAGCACAGGAUAUCCGAGGCAAAACAUGAGGAUCACCCAUGUCAAACGAAAAUCCGAAGGAGAAGGGUGAACGGGCUC [Xeisquorat] (puzzle: Same State 2)
apparent KD of MS2 coat protein [1]: 12 nM | apparent KD of MS2 coat protein [2]: 11.8 nM | apparent KD of MS2 coat protein [3]: 9.59 nM

AUGUGUUUGCGAGGAUAUCGUUUGUUGAAGUUACGAGAAGGCGCUCACUUUACAUGAGGAUCACCCAUGUCUUUGAUGCAUGAU [JR_SSNG1_Sub073] (Eterna round: R96, puzzle: Same State NG 1)
apparent KD of MS2 coat protein (input ligand: FMN 200 uM): 46.6 nM | apparent KD of MS2 coat protein [4]: 40.2 nM | apparent KD of MS2 coat protein (input ligand: none): 44.1 nM

AUUAAACAUGAGGAUCACCCAUGUCAACAAAGUCGAGGAUAUGGGCAAAUAUAAUAAGAACCAGAAGGCGAAUAAU [salish99_ss1_r3_059] (puzzle: Same State 1)
apparent KD of MS2 coat protein [1]: 28 nM | apparent KD of MS2 coat protein [2]: 190 nM | apparent KD of MS2 coat protein [3]: 227 nM

AUUAAACAUGAGGAUCACCCAUGUCAACAAAGUCGAGGAUAUGGGCAUAUUAUCUUAUUUCCAGAAGGCGAAUAAU [salish99_ss1_r3_088] (puzzle: Same State 1)
apparent KD of MS2 coat protein [2]: 131 nM

AUUACUAACAUAGGAUAUCAUGCGAAAAUUGCGUGAGAAGGGUGGACGCUGUCAUUCACGGAGGACAUGAGGAUCACCCAUGUC [SameState NG1 #72] (Eterna round: R96, puzzle: Same State NG 1)
apparent KD of MS2 coat protein (input ligand: FMN 200 uM): 264 nM | apparent KD of MS2 coat protein [4]: 103 nM | apparent KD of MS2 coat protein (input ligand: none): 143 nM

AUUAUCAAUGCAGGAUAUGAUUAACAUGAGGAUCACCCAUGUGGUGUUGUGAGUAAGGAGAGUGAUCAGAAGGGCAUUUUUUUU [JMF's solution 26] (Eterna round: R96, puzzle: Same State NG 2)
apparent KD of MS2 coat protein (input ligand: FMN 200 uM): 575 nM | apparent KD of MS2 coat protein [4]: 261 nM | apparent KD of MS2 coat protein (input ligand: none): 475 nM

AUUAUUAAUGCAGGAUAUGAUUAACAUGAGGAUCACCCAUGUGGUGUUGUGAGUAAGGAGAGUGAUCAGAAGGGCAUCUUUUUU [JMF's solution 10] (Eterna round: R96, puzzle: Same State NG 2)
apparent KD of MS2 coat protein (input ligand: FMN 200 uM): 470 nM | apparent KD of MS2 coat protein [4]: 312 nM | apparent KD of MS2 coat protein (input ligand: none): 359 nM

AUUAUUAAUGCAGGAUAUGAUUAACAUGAGGAUCACCCAUGUGGUGUUGUGAGUAAGGAGAGUGAUCAGAAGGGCAUUUUUUUA [JMF's solution 18] (Eterna round: R96, puzzle: Same State NG 2)
apparent KD of MS2 coat protein (input ligand: FMN 200 uM): 653 nM | apparent KD of MS2 coat protein [4]: 440 nM | apparent KD of MS2 coat protein (input ligand: none): 479 nM

AUUAUUUAUGCAGGAUAUGAUUAACAUGAGGAUCACCCAUGUGGUGUUGUGAGUAAGGAGAGUGAUCAGAAGGGCAUUAUUUUU [JMF's solution 45] (Eterna round: R96, puzzle: Same State NG 2)
apparent KD of MS2 coat protein (input ligand: FMN 200 uM): 634 nM | apparent KD of MS2 coat protein [4]: 214 nM | apparent KD of MS2 coat protein (input ligand: none): 355 nM

AUUAUUUAUGCAGGAUAUGAUUAACAUGAGGAUCACCCAUGUGGUGUUGUGAGUAAGGAGAGUGAUCAGAAGGGCAUUUUUUUU [JMF's solution 22] (Eterna round: R96, puzzle: Same State NG 2)
apparent KD of MS2 coat protein (input ligand: FMN 200 uM): 673 nM | apparent KD of MS2 coat protein [4]: 377 nM | apparent KD of MS2 coat protein (input ligand: none): 447 nM

AUUGCUUUCGCAGGAUAUGAUGCGAAAAUUGCGUCAGAAGGGUGGAGUCUCUCAUUGCUAGAGGACAUGAGGAUCACCCAUGUC [SameState NG1 #85] (Eterna round: R96, puzzle: Same State NG 1)
apparent KD of MS2 coat protein (input ligand: FMN 200 uM): 188 nM | apparent KD of MS2 coat protein [4]: 309 nM | apparent KD of MS2 coat protein (input ligand: none): 541 nM

CAAUAAUGUGGAGGAUAUGGGAGGUCAACACAUGAGGAUCACCCAUGUAGAUAGUGAGGCCAAGCCUAGAAGGCCACAAUCAGC [Eternabot solution 20] (Eterna round: R96, puzzle: Same State NG 2)
apparent KD of MS2 coat protein (input ligand: FMN 200 uM): 12.6 nM | apparent KD of MS2 coat protein [4]: 65.5 nM | apparent KD of MS2 coat protein (input ligand: none): 95.9 nM
